Data: patent US20180305451A1 (COMPUGEN, published 2018)
Where a chain is given by its changes, count along the chain named.

B1: αhHIDE1_AbD25753_hIgG1_Ser_mAb (antibody, V domains shown)
VH: EVQLVQSGAEVKKPGESLKISCKGSGYSFTNYWIHWVRQMPGKGLEWMGIIDPGNSFTRYSPSFQGQVTISADKSISTAYLQWSSLKASDTAMYYCARGDGLYGGSDGYSMGGFDNWGQGTLVTVSS
VL: DIQMTQSPSSLSASVGDRVTITCRASQTIWNYLAWYQQKPGKAPKLLIYDASNLQSGVPSRFSGSGSGTDFTLTISSLQPEDFATYYCQQYSHFPHTFGQGTKVEIK
B2: αhHIDE1_AbD25754_hIgG1_Ser_mAb (antibody, V domains shown)
VH: QVQLVQSGAEVKKPGASVKVSCKASGYTFSGYGMHWVRQAPGQGLEWMGIISPSNGNTNYAQKFQGRVTMTRDTSISTAYMELSRLRSEDTAVYYCAREVYYGLDVWGQGTLVTVSS
VL: DIQMTQSPSSLSASVGDRVTITCRASQSISSWLNWYQQKPGKAPQLLIYGASSLQSGVPSRFSGSGSGTDFTLTISSLQPEDFATYYCQQYISIPITFGQGTKVEIK
B3: αhHIDE1_AbD25755_hIgG1_Ser_mAb (antibody, V domains shown)
VH: QVQLVQSGAEVKKPGSSVKVSCKASGGTFSSYAISWVRQAPGQGLEWMGGIVPKFGTAYYAQKFQGRVTITADESTSTAYMELSSLRSEDTAVYYCARENLVYSAIAIWGQGTLVTVSS
VL: B2 VL with S28D, S31N, Q45K, Y91V, I92T, I94T, I96F
B4: αhHIDE1_AbD25760_hIgG1_Ser_mAb (antibody, V domains shown)
VH: QVQLVQSGAEVKKPGSSVKVSCKASGGTFSDYAINWVRQAPGQGLEWMGGIIPNFGTANYAQKFQGRVTITADESTSTAYMELSSLRSEDTAVYYCARGMRSLGGLSYYFDLWGQGTLVTVSS
VL: B2 VL with S30N, W32Y, Q45K, G50A, S93H, I94Y
notes: also called AB-510; Ab-510
B5: CPA.12.005 human IgG4 (antibody, V domains shown)
VH: QVQLVESGGGVVQPGRSLRVSCAVSGFTFSSYGMHWVRQAPGGGLEWVAVMSYEGSFRHYADSVKGRFTISRDNSKNTLFLQMDSLRAEDTAVYYCARDRPAGYTSGWGILDYWGQGTLVTVSS
VL: EIVMTQSPATLSLSPGERATLSCRASQSVSSYLAWYQQKPGQAPRLLIYDASNRATGIPARFSGSGSGTDFTLTISSLEPEDFAVYYCQQRSNWPLTFGGGTKVDIKR
notes: also called CPA.12.005-H4
B6: CPA.12.006 human IgG4 (antibody, V domains shown)
VH: EVQLVESGGGVVQPGRSLRLSCAASGFTFSSFAMHWVRQAPGKGPEWLGIILYEGGHVVYADSVRGRLTISRDNSKNTLYLQMDSLRDEDTAVYYCAKGFYHAFDVWGQGTMVTVSS
VL: QAVLTQPASLSASPGASASLTCTLRSGINVGTYRIYWYQQKPGSPPQYLLRYKSDSDKQQGSGVPSRFSGSKDASANAGILLISGLQSEDEADYYCMIWHSSAWVFGGGTQLTVLG
notes: also called CPA.12.006-H4
B7: CPA.12.007 human IgG4 (antibody, V domains shown)
VH: EVQLVESGGGVVQPGESLRLSCAASGFTFSSYGFHWVRQSPGEGLEWLAVISYDGTSKSYADSVKGRFTVSRDNSKETLYLQLSSLRREDTALYYCARDTWGYYYGMDVWGQGTTVTVSS
VL: DIQMTQSPSFLSGSVGDRVSISCRASQDIRSHLAWYQRKPGEAPKLLIYTASSLQGGVPLRFSGSGSGTEFTLTISSLQPEDSATYYCQHLHLYPLTFGGGTKLEIKR
notes: also called CPA.12.007-H4
B8: CPA.12.008 human IgG4 (antibody, V domains shown)
VH: QVQLQESGPGLVTPSETLSLTCTVSGGSISSVSYYWGWVRQPPGKGLEWIGSIYYSGTTAHNPSLKSRVTMAVDTSKNQFSLSLSSVTAADTAVYFCARGWRYYEDYYFDHWGQGTLVTVSS
VL: AIRMTQSPSSLSASVGDRVTITCQASQDISNYLNWYQQKPGKAPKSLIYAASSLQSGVPSKFSGSGSGTDFTLTISSLQPEDFATYYCQQYYSYPLTFGGGTKVEIKR
notes: also called CPA.12.008-H4
B9: CPA.12.009 human IgG4 (antibody, V domains shown)
VH: QMQLVQSGAEVKKPGASVKVSCKASGYTFTTHAFSWVRQAPGLGLEWMGWISTYNGNTKYEQKFQGRVTLTTDSSTNTAYMELRSLRSDDTAVYYCVRDSRAFDVWGQGTMVTVSS
VL: DIQLTQSPSFLSASVGDRVTITCRASQGINSYLAWYQQKPGAAPKLLIYAASTLQSGVPSRFSGSGSGTEFTLTISSLQPEDFATYYCQQLNTYPLIFGQGTRLEIKR
notes: also called CPA.12.009-H4
B10: CPA.12.012 human IgG4 (antibody, V domains shown)
VH: QVQLVESGGGVVQPGRSLRLSCAASGFTFSSYAMHWVRQAPGKGLEWVAVISYDGSNKYYADSVKGRFTISRDNSKNTLYLQMNSLRAEDTAVYYCARSSGSSWSNIAYWGQGTLVTVSS
VL: QSVLTQPPSVSGAPGQRVTISCIGSSSNIGAGYDVHWYRQLPGTAPKLLIYDNTNRPSGVPDRFSASKSGISASLAITGLQAEDEADYYCQSYDSNLSGVFGGGTQLTVLG
notes: also called CPA.12.012-H4; CPA.12.0012-H4
B11: CPA.12.013 human IgG4 (antibody, V domains shown)
VH: EVQLVETGGGLIQPGRSLRLSCVASDFRFSNHAMHWVRQAPGKELEWVAVISSDGSNRQYAYSVKGRFTISRDNSKNTLYLEMNILGPEDTAVYFCVRSHLGPEWYYGMDVWGQGTTVTVSS
VL: DIQMTQSPSSLSASVGDRVTITCQASHDIRKFLNWYQQHPGKAPKLLIYDAAYSEIGVPSRFSGGGSGTDFTFTINNLQPDDFATYYCQQYESLPFTFGPGTKVDIKR
notes: also called CPA.12.013-H4
B12: CPA.12.014 human IgG4 (antibody, V domains shown)
VH: QVTLKESGPALVTPTQNLTLTCTVSGGSISSSSYYWGWIRQPPGKGLEWIGSIYYSGSTYYNPSLKSRVTISVDTSKNQFSLKLSSVTAADTAVYYCARRRNSSGWFYFDYWGQGTLVTVSS
VL: QSVLTQPPSVSGAPRQRVTISCSGSRSNIGDNAVNWYQHPPGKAPKLLIYYDDLLPSGVSDRFSGSKSGTSASLAISGLQSEDEADYYCATWDDSLNGHVFGTGTKLTVLG
notes: also called CPA.12.014-H4
B13: CPA.12.015 human IgG4 (antibody, V domains shown)
VH: QVQLQESGPGLVKPSETLSLTCTVSGGSISSSSYYWGWIRQPPGKGLEWIGSIYYSGSTHYNPSLKSRVTISVDTSKNQFSLKLSSVTAADTAVYYCARVYYGSGTGGAFDIWGQGTMVTVSS
VL: QSVLTQPPSVSGAPGQRVTISCTGSSSNIGAAYDVHWYQQLPGTAPKLLIYGDTIRPSGVPDRFSGSKSGTSASLAITGLQAEDEADYYCQSYDSSLSGSWVFGGGTQLTVLG
notes: also called CPA.12.015-H4

How the values were obtained:
human HIDE1-flag [1] = target: T1, human HIDE1-flag (human, UniProt A8MVS5 20-230); experiment: FACS titration on CHO-S cells over-expressing human HIDE1 Flag (curves in FIG. 96A)
T1 construct: Over-expressed on HEK293, SK-MEL-5, CHO-S and CHO-S OKT3 cells (pMSCV or pcDNA3.1); whole cell extracts in WB; Entry includes the signal peptide; also called hHIDE1 Flag
T1 sequence: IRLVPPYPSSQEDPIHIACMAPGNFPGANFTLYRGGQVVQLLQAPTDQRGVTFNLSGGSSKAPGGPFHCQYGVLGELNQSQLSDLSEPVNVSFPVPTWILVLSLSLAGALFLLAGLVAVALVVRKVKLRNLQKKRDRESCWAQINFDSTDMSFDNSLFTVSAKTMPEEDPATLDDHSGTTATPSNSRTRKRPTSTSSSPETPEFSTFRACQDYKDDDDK
Description: (§1) FIG. 96: Affinity measurements using FACS application for the anti-human HIDE1 reformatted Fab's on CHO-S cells over-expressing human HIDE1 Flag protein. (A)CHO-S cells over-expressing the human HIDE1 Flag (circle dots) or HEK293 transduced with empty vector (square dots) were analyzed by FACS using Serotec anti-Human HIDE1 reformatted antibodies (1-5) in 7 concentrations-series dilution 1:3, 10-0.01 μg/ml. Detection was carried out using Goat Anti Human-PE secondary Ab. (B) Summary table of Serotec anti-human HIDE1 reformatted antibodies 1-5 FACS analysis, the Geo mean ratio of HEK293 cells over-expressing the human HIDE1 Flag/HEK293 transduced with empty vector and the cross reactive validation, the Geo-mean ratio of HEK293 cells over-expressing the mouse/cyno HIDE1 Flag/HEK293 transduced/transfected with empty vector. And Kd (nM) for each reformatted Fab.
The affinity The affinity measurements of the reformatted Serotec's Ab's (full hIgG1 Abs) against human HIDE1, using FACS application were tested using CHO-S cell over-expressing human HIDE1. CHO-S cells transduced with an empty vector were used as a negative control.
As shown in FIG. 96. the binding of 5 out of 5 anti-human HIDE1 reformatted Ab's (1-5) to the CHO-S cells over-expressing human HIDE1 Flag protein (circle dots) is higher than the binding of these reformatted Ab's to the empty vector cells (square dots). Two of the five antibodies (2 and 3) reaches saturation at the concentrations that were measured. The Kd value and R square are represented in the figure.

human HIDE1-flag [2] = target: T1, human HIDE1-flag; experiment: FACS, Geo mean ratio of HEK293 cells over-expressing human HIDE1 Flag to HEK293 empty vector, antibody 10 ug/ml
Description: as §1
The performance of the reformatted Serotec's antibodies against human HIDE1, in FACS application were tested using HEK293 cell over-expressing human HIDE1 Flag, mouse HIDE1 or cyno HIDE1. HEK293 cells transduced/transfected with an empty vector were used as a negative control

human HIDE1 = target: T2, human HIDE1 (human, UniProt A8MVS5 20-230); experiment: FACS titration on 293T-huHIDE1 cells, human IgG4 (preliminary FACS KD)
T2 construct: Endogenous on U937, HL-60, THP-1 cells, blood monocytes, AML blasts and dendritic cells; also called C19orf38; hHIDE1
T2 sequence: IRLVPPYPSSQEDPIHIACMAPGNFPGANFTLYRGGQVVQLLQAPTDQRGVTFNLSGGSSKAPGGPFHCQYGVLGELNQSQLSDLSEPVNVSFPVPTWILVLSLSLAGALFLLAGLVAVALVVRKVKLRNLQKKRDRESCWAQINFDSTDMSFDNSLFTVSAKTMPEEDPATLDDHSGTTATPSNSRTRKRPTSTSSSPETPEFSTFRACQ
Description: (§2) FACS screening of reformatted IgG4 antibodies: The cell lines described in paragraph [001066] (“FACS screening of PPE”) were mixed with FACS buffer containing the purified anti-HIDE1 IgGs or isotype controls. […] Cells were washed again and fluorescence was detected using an Intellicyt HTFC screening system (Intellicyt). Data were analyzed using FCS Express (DeNovo) and plotted for affinity calculations (KD) in GraphPad Prism (GraphPad Software, Inc.). Note that each anti-HIDE1 antibody was tested over a titration range from 0-80 μg/mL.
(§3) Overview of FACS binding results for human IgG4 antibodies reformatted from Fab screening hits. […] IgGs from the same H-CDR3 family are indicated by the same color, either blue or green. CPA.12.003 & CPA.12.008 have identical heavy chain CDR-3 regions and minor differences in framework regions or other CDRs. The same holds for CPA.12.004 & CPA.12.013. N.B. not binding.

mouse HIDE1 = target: T3, mouse HIDE1 (mouse, UniProt Q75VT8 22-222); experiment: FACS on 293T-moHIDE1 cells, human IgG4
T3 construct: Endogenous on EL4, YAC-1, J774A.1/J774A.2 cells; also called AB124611; mHIDE1
T3 sequence: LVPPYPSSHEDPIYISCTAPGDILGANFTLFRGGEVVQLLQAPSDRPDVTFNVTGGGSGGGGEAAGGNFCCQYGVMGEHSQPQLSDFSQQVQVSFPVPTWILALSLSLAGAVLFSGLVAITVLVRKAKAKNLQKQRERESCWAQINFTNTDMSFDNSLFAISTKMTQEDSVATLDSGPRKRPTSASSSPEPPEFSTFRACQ
Description: as §2, §3

Binder | Kd (human HIDE1-flag [1]) [nM] | rMFI OX/EV, 10ug/ml, hHIDE1 (human HIDE1-flag [2]) | Kd (human HIDE1) [nM] | binding result (mouse HIDE1)
B1 | 10.8 | 276 | – | –
B2 | 9.85 | 270 | – | –
B3 | 45.4 | 236 | – | –
B4 | 96.7 | 117 | – | –
B5 | – | – | 4 | no binding (tested: titration 0-80 µg/mL)
B6 | – | – | 2.5 | no binding (tested: titration 0-80 µg/mL)
B7 | – | – | 14 | no binding (tested: titration 0-80 µg/mL)
B8 | – | – | 1.3 | no binding (tested: titration 0-80 µg/mL)
B9 | – | – | 1.7 | no binding (tested: titration 0-80 µg/mL)
B10 | – | – | 1.3 | no binding (tested: titration 0-80 µg/mL)
B11 | – | – | 2.6 | no binding (tested: titration 0-80 µg/mL)
B12 | – | – | 13 | no binding (tested: titration 0-80 µg/mL)
B13 | – | – | 11 | no binding (tested: titration 0-80 µg/mL)
